Several values for one entry are separate records, joined by “and”; a condition that tells them apart may be missing. Equal entries are not always repeated.
How the values were obtained:
murine CTLA4 (murine) [1] = molecular target: murine CTLA4 (murine) (UniProt P09793); test: ELISA on coated CTLA4, source Mouse
murine CTLA4 (murine) [2] = molecular target: murine CTLA4 (murine) (UniProt P09793); test: ELISA, coat murine CTLA4 0.5 ug/ml; antibody 1 ug/ml
murine CTLA4 (murine) [3] = molecular target: murine CTLA4 (murine) (UniProt P09793); test: ELISA, coat murine CTLA4 0.5 ug/ml; antibody 0.1 ug/ml
murine CTLA4 (murine) [4] = molecular target: murine CTLA4 (murine) (UniProt P09793); test: ELISA, coat murine CTLA4 0.5 ug/ml; antibody 0.3 ug/ml
murine CTLA4 (murine) [5] = molecular target: murine CTLA4 (murine) (UniProt P09793); test: ELISA, coat murine CTLA4 0.5 ug/ml; antibody 0.01 ug/ml
murine CTLA4 (murine) [6] = molecular target: murine CTLA4 (murine) (UniProt P09793); test: ELISA, coat murine CTLA4 0.5 ug/ml; antibody 0.03 ug/ml
murine CTLA4 (murine) [7] = molecular target: murine CTLA4 (murine) (UniProt P09793); test: ELISA, coat murine CTLA4 0.5 ug/ml; antibody 0.001 ug/ml
murine CTLA4 (murine) [8] = molecular target: murine CTLA4 (murine) (UniProt P09793); test: ELISA, coat murine CTLA4 0.5 ug/ml; antibody 0.003 ug/ml
murine CTLA4 (murine) [9] = molecular target: murine CTLA4 (murine) (UniProt P09793); test: ELISA, coat murine CTLA4 0.5 ug/ml; antibody 0 ug/ml (blank)
murine CTLA4 (murine) [10] = molecular target: murine CTLA4 (murine) (UniProt P09793); test: ELISA on coated CTLA4, source taken as Mouse; second unlabelled line under 8D2 / Mouse; the run in which 10D1 gave […] and 11.2.1 was not measured
murine CTLA4 (murine) [11] = molecular target: murine CTLA4 (murine) (UniProt P09793); test: ELISA on coated CTLA4, source taken as Mouse

B1: monoclonal antibody 8D2 (antibody, V domains shown)
VH: EVKLDETGGGLVQPGRPMKLSCVASGFTFSDNWMNWVRQSPEKGLEWLAQIRNKPYNYETYYSDSVKGRFTISRDDSKSSVYLQMNNLRGEDMGIYYCTAQFAYWGQGTLVTVSA
VL: DIQMTQSPASLSASVGETVTITCGTSENIYGGLNWYQRKQGKSPQLLIFGATNLADGMSSRFSGSGSGRQYSLKISSLHPDDVATYYCQNVLRSPFTFGSGTKLEI
In the case of B1, the EC50 (murine CTLA4 (murine) [1]) is reported as 0.015 nM, the absorbance at 450 nm (murine CTLA4 (murine) [2]) is reported as 2.82 and 2.68 and the absorbance at 450 nm (murine CTLA4 (murine) [3]) is reported as 2.75 and 2.72. The absorbance at 450 nm (murine CTLA4 (murine) [4]) was 2.81 and 2.76, the absorbance at 450 nm (murine CTLA4 (murine) [5]) was 1.61 and 1.56 and the absorbance at 450 nm (murine CTLA4 (murine) [6]) was 2.34 and 2.38. The absorbance at 450 nm (murine CTLA4 (murine) [7]) was 0.358 and 0.355, the absorbance at 450 nm (murine CTLA4 (murine) [8]) was 0.784 and 0.76 and the absorbance at 450 nm (murine CTLA4 (murine) [9]) was 0.063 and 0.052. It also gave an EC50 (murine CTLA4 (murine) [10]) of 0.071 nM.

B2: 8D2 recombinant antibody, 8D2(Re) (antibody, V domains shown)
VH: B1 VH
VL: B1 VL
In the case of B2, the EC50 (murine CTLA4 (murine) [1]) is reported as 0.015 nM, the EC50 (murine CTLA4 (murine) [11]) is reported as 0.085 nM and the absorbance at 450 nm (murine CTLA4 (murine) [2]) is reported as 2.67 and 2.77. The absorbance at 450 nm (murine CTLA4 (murine) [3]) was 2.8 and 2.69, the absorbance at 450 nm (murine CTLA4 (murine) [4]) was 2.69 and 2.73 and the absorbance at 450 nm (murine CTLA4 (murine) [5]) was 1.4 and 1.45. The absorbance at 450 nm (murine CTLA4 (murine) [6]) was 2.31 and 2.26, the absorbance at 450 nm (murine CTLA4 (murine) [7]) was 0.315 and 0.321 and the absorbance at 450 nm (murine CTLA4 (murine) [8]) was 0.662 and 0.674. The absorbance at 450 nm (murine CTLA4 (murine) [9]) was 0.053 and 0.046.

B3: humanized antibody 8D2H1L1 (antibody, V domains shown)
VH: EVQLVESGGGLVQPGGSMRLSCAASGFTFSDNWMNWVRQAPGKGLEWLAQIRNKPYNYETYYSDSVKGRFTISRDDSKNSVYLQMNSLKTEDTGVYYCTAQFAYWGQGTLVTVSS
VL: DIQMTQSPSSLSASVGDRVTITCRTSENIYGGLNWYQRKQGKSPKLLIYGATNLASGMSSRFSGSGSGTDYTLKISSLHPDDVATYYCQNVLRSPFTFGSGTKLEIK
B3 showed an EC50 (murine CTLA4 (murine) [1]) of 0.025 nM.

— patent US20260166139A1
